Data published in US20240358731A1, “SUMO PATHWAY AS AN OXYGEN SENSOR RELEVANT TO THE PATHOPHYSIOLOGY OF PULMONARY ARTERY HYPERTENSION AND CARDIAC ARRHYTHMIA” (Northeastern University, priority 2023, published 2024).

T1: Kir2.1-mediated IK1 current (Rattus norvegicus, UniProt Q64273)
T1 construct: endogenous in cells; host or cells: rat ventricular cardiomyocytes (RVCMs)
T1 sequence (Q64273 1-427): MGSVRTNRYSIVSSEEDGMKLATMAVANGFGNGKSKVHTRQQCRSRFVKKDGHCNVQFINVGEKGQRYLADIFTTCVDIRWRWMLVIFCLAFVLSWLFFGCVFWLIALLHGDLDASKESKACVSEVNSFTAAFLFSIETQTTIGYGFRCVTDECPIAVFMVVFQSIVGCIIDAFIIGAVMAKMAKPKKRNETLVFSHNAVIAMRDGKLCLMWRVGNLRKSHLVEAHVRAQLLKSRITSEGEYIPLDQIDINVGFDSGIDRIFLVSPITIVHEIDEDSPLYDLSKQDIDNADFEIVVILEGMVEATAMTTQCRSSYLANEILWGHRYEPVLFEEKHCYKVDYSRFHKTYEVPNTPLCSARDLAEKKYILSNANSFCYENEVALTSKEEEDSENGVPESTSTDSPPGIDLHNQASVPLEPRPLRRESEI


Molecular target: T1, Kir2.1-mediated IK1 current
Test: Whole-cell patch-clamp of IK1 in rat ventricular cardiomyocytes under acute hypoxia
Type: cell-based
Details: for effect on hypoxic inhibition of IK1: ambient O2 to 2% O2, agent in pipette (SENP1 2 μM, SUMO1 1 μM, diC8-PIP2) or pretreatment (TAK981)
Experimental: IK1 in rat ventricular cardiomyocytes studied by whole-cell patch-clamp. Hypoxia was a drop in O2 from ambient levels to 2%, measured at the cell. The time-course of hypoxic-inhibition was studied by recording the magnitude of IK1 every second. Cells were studied with the following pipette solutions: control, SUMO1 (1 μM) or SENP1 (2 μM). IK1 was blocked by the addition of 3 mM Ba^2+. […] Left, representative current sweeps; right, a representative time course showing the kinetics of hypoxic inhibition in cardiomyocytes studied with control pipette solution. The inhibition is precluded by including SENP1 (2 μM, magenta) in the recording pipette. The reverse ramp recording protocol is inset. […] SENP1 augments IK1 and protects the current from hypoxia. Data are from 8-10 RVCMs per group, **** P<0.0001, paired, two-tailed Student's […]. […] Representative data are shown with DAPI labeled nuclei and PLA interactions. Summary data are obtained from multiple experiments each with multiple fields of view containing 20-30 nuclei. The scale bar is 10 μm.
To knockdown Kir2.1 expression, RVCMs were transduced with lentiviral particles carrying cGFP and shRNA targeting KCNJ2-mRNA for the channel. Kir2.1 knockdown cells (Kir2.1kd-CMs) were identified by expression of cGFP. Cells were studied with control pipette solution, or with pipette solutions containing purified SUMO1 (1 μM) or SENP1 (2 μM). Where indicated, the control pipette solution contained diC8 PIP2. Paired patch-clamp data were analyzed by Students t-test; ***, P<0.01. […] Kir2.1kd-CMs are identified by expression of GFP (inset, scale bar=10 μm). […] The arrow indicates the change in current-magnitude between exposure to ambient O2 and 2% O2 in the same cell. Right, Concentration-response curve showing that including diC8-PIP2 in the pipette opposes hypoxic-inhibition of IK1 in control RVCMs and RVCMs expressing the scrambled shRNA. The hypoxic-response is diminished in Kir2.1kd-CMs. Data are mean±s.d. for 7-8 cells per condition. […] Current inhibition is diminished when SENP1 is included in the recording pipette and is not observed when SUMO-insensitive Kir2.1-K49Q channels are studied. Data are mean±s.d. for 6 cells per condition.
Hypoxic-inhibition of Kir2.1 in cardiomyocytes via SUMOylation. We studied the effects of acute hypoxia on IK1 in rat ventricular cardiomyocytes (RVCMs) by whole cell patch-clamp recording. […] Both the hypoxia-sensitive and insensitive components of the current were blocked by Ba^2+ (3 mM), consistent with the known role of Kir2 channels in mediating IK1 (FIG. 1a). To determine if SUMOylation mediates the hypoxic inhibition of IK1 we introduced purified SENP1 (2 μM) to the cytosol via the recording pipette. […] Both the SUMO1 and hypoxia-mediated inhibition of IK1 remained stable throughout the remainder of the experiment (up to 10 mins). […] Next, we visualized and quantified the interactions between native Kir2.1 and SUMO1 in RVCMs using the proximity-ligation association (PLA) assay with antibodies we validated in heterologous cells by Western blot. […] The validated Kir2 antibodies were paired with SUMO1 antibodies that we have tested and utilized before. Under control conditions, interactions were observed between Kir2.1 and SUMO1, but not between Kir2.2 or Kir2.3 and SUMO1. […] Although cardiomyocytes are typically cultured at 21% O2, the O2-level in the myocardium is estimated to be in the range of 5-10% O2, under physiological conditions.
Hypoxic-inhibition of IK1/Kir2.1 is reduced by diC8-PIP2 in a concentration-dependent manner. We have shown that adding the exogenous, soluble PIP2 analog diC8-PIP2 into the patch-pipette opposes hypoxic-inhibition of IK1 (FIG. 4). […] As before, the effects of hypoxia were ameliorated by SENP1 (2 μM) and were not observed in the SUMO and hypoxia insensitive Kir2.1-K49Q channels (FIG. 4D).

Molecule | effect on hypoxic inhibition of IK1 | decrease in IK1 (SUMO1 1 μM in recording pipette) [%] | increase in IK1 (purified SENP1 2 μM via recording pipette, mean±S.D.) [%]
Cc1sc(C(=O)c2cncnc2N[C@@H]2C[C@H](COS(N)(=O)=O)[C@@H](O)C2)cc1[C@@H]1NCCc2ccc(Cl)cc21 [TAK981, Subasumstat] | precludes hypoxic inhibition of Kir2 currents | – | –
SUMO1: purified SUMO1 (small ubiquitin-related modifier) protein introduced via the recording pipette or co-expressed | hypoxia-sensitive component of the current was abolished | 48±8 | –
SENP1: purified deSUMOylating enzyme (SUMO specific protease) introduced via the recording pipette or expressed (protein, UniProt Q9P0U3 1-644, looked up) Sentrin-specific protease 1: MDDIADRMRMDAGEVTLVNHNSVFKTHLLPQTGFPEDQLSLSDQQILSSRQGHLDRSFTCSTRSAAYNPSYYSDNPSSDSFLGSGDLRTFGQSANGQWRNSTPSSSSSLQKSRNSRSLYLETRKTSSGLSNSFAGKSNHHCHVSAYEKSFPIKPVPSPSWSGSCRRSLLSPKKTQRRHVSTAEETVQEEEREIYRQLLQMVTGKQFTIAKPTTHFPLHLSRCLSSSKNTLKDSLFKNGNSCASQIIGSDTSSSGSASILTNQEQLSHSVYSLSSYTPDVAFGSKDSGTLHHPHHHHSVPHQPDNLAASNTQSEGSDSVILLKVKDSQTPTPSSTFFQAELWIKELTSVYDSRARERLRQIEEQKALALQLQNQRLQEREHSVHDSVELHLRVPLEKEIPVTVVQETQKKGHKLTDSEDEFPEITEEMEKEIKNVFRNGNQDEVLSEAFRLTITRKDIQTLNHLNWLNDEIINFYMNMLMERSKEKGLPSVHAFNTFFFTKLKTAGYQAVKRWTKKVDVFSVDILLVPIHLGVHWCLAVVDFRKKNITYYDSMGGINNEACRILLQYLKQESIDKKRKEFDTNGWQLFSKKSQEIPQQMNGSDCGMFACKYADCITKDRPINFTQQHMPYFRKRMVWEILHRKLL | insensitive to hypoxia | – | 17.6±6.5
